In patent publication US20090118185A1 (UNIVERSITY OF ROCHESTER, published 2009):

Target: T1, 562(P4-P3′)336 factor VIII mutant (procofactor)
T1 chain 1: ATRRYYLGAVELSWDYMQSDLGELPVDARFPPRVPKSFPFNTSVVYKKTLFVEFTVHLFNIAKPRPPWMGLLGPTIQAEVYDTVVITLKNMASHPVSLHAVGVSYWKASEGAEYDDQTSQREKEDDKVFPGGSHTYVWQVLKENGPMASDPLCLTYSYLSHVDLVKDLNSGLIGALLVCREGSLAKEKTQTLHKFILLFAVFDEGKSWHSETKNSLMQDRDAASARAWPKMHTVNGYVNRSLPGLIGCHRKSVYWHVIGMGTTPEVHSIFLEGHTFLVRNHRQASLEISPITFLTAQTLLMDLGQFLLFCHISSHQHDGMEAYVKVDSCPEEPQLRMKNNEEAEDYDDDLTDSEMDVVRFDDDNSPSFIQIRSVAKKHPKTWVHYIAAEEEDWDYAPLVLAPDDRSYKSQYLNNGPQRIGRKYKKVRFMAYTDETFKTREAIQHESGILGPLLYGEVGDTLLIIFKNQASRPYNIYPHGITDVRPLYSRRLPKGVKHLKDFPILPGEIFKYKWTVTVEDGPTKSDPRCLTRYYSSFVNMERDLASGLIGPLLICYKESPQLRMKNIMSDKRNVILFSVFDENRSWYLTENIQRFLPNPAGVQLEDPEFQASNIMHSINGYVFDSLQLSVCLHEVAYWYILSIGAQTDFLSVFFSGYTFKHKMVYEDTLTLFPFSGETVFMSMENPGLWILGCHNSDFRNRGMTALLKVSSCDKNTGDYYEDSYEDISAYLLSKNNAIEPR
T1 chain 2: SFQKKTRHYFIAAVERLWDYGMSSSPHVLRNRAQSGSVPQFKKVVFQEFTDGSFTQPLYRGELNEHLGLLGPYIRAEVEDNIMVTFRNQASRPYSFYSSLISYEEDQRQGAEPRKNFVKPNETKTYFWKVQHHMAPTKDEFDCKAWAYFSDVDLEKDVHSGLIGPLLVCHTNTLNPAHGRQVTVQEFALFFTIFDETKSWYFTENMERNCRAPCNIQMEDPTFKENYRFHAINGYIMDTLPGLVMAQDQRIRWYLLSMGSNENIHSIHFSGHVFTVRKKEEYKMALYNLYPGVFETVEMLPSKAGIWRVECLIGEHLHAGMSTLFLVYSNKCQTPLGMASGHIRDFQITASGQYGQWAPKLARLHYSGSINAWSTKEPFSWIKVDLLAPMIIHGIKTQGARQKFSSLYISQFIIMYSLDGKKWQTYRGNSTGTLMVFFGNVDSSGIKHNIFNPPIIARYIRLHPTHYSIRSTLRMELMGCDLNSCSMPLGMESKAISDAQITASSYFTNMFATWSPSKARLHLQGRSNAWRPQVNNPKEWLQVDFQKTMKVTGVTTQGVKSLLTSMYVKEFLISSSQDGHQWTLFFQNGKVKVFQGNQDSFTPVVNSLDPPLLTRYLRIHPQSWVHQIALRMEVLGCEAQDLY

B1: human activated protein C (protein)
chain 1: ANSFLEELRHSSLERECIEEICDFEEAKEIFQNVDDTLAFWSKHVDGDQCLVLPLEHPCASLCCGHGTCIDGIGSFSCDCRSGWEGRFCQREVSFLNCSLDNGGCTHYCLEEVGWRRCSCAPGYKLGDDLLQCHPAVKFPCGRPWKRMEKKRSHL
chain 2: LIDGKMTRRGDSPWQVVLLDSKKKLACGAVLIHPSWVLTAAHCMDESKKLLVRLGEYDLRRWEKWELDLDIKEVFVHPNYSKSTTDNDIALLHLAQPATLSQTIVPICLPDSGLAERELNQAGQETLVTGWGYHSSREKEAKRNRTFVLNFIKIPVVPHNECSEVMSNMVSENMLCAGILGDRQDACEGDSGGPMVASFHGTWFLVGLVSWGEGCGLLHNYGVYTKVSRYLDWIHGHIRDKEAPQKSWAP
**Q.** With B1 as the protein, how does the A2 Cleavage (nM A2/min/nM APC) (nM A2/min/nM APC) read?
**A.** 2.7
